In data set [1] the test system is cUNG (Atlantic cod uracil-DNA glycosylase). Briefly: Product inhibition of cUNG with free uracil. It is filed as biochemical, Atlantic cod (Gadus morhua). The method, then: Different concentrations of uracil was added to the assay mixture and the assay performed as described in material and methods. Uracil-DNA glycosylase activity was measured in a final volume of 20 μl, containing 70 mM Tris/HCl, 10 mM NaCl, 1 mM EDTA, 100 μg/ml BSA and 230 ng nick-substrate or 71 ng PCR-substrate. The reaction mixture was incubated 10 min at 37° C., and terminated with the addition of 20 μl of ice cold single stranded calf thymus DNA (1 mg/ml) and 500 μl 10% (w/v) TCA. Samples were incubated on ice for 15 min, and centrifuged at 16,000 g for 10 min. Supernatants with acid soluble ^3H-uracil were analyzed using a liquid scintillation counter. Activity measurements using PCR-substrate were performed with 6.65×10^−4 U of purified cUNG. Various concentrations of uracil (0, 1, 2 and 5 mM) or Ugi-inhibitor (1.25×10^3 U to 2.00×10^2 U) were added to the assay mixtures (on ice). Activity was then measured as described under standard assay conditions.

The conditions of data set [2]: cited from earlier work; for half-life: literature (45).
Data set [3] in a line: Effect of pH on stability (residual UNG activity). It is filed as physicochemical. The method, then: In the different pH-buffer, 1 U of cUNG (Δ) or rhUNG (□) were incubated for 10 minutes at 37° C. Then 5 μl aliquotes were transfered to the assay mixture, and residual activity was measured using standard assay conditions as described in materials and methods. One hundred percent activity was measured directly from a sample diluted at pH 8.0 without any incubation step.
pH: UNG (0.01 U) was preincubated (in a total volume of 75 μl) for 10 min at 37° in buffers containing 10 mM buffer, 10 mM NaCl, 1 mM EDTA, 1% glycerol, with pH ranging from 9.5-6.5 with 0.5 pH unit intervals using diethanolamine/HCl (9.5-8.5), Tris/HCl (8.5-7.5), MOPS/NaOH (7.5-6.5) and MES/NaOH (6.5-5.5) as buffer components. Aliquots of 5 μl were transferred to the assay mixtures and residual activity was measured using standard assay conditions.

The subject of data set [4] is PCR generated uracil-containing DNA substrate. Briefly: Determination of temperature optimum / temperature profile. The format is biochemical. The protocol:
Due to prolonged incubation of the enzyme sample on ice during the experiment, activity is corrected with respect to the stability of the enzyme, as described in material and methods.
Enzyme activity was measured as described in material and methods. The percent UNG activity is set relative to the highest value for cUNG (45° C.) and rhUNG (50° C.) respectively. Due to prolonged incubation of the enzyme samples on ice during the experiment, activity is corrected with respect to the stability of the enzymes, as described in material and methods.
(§1) Assays were done in a volume of 20 μl as described in standard assay using the PCR generated substrate. The assay mixtures were as described in standard assay conditions and were adjusted to pH 8.0 for all temperatures. The temperature range used was 5° C. to 60° C. The activity was measured in a sequential manner with 15 min intervals, between each temperature. The enzymes used were diluted in standard dilution buffer (5 mM Tris/HCl, 10 mM NaCl, 1% (v/v) glycerol, pH 8.0) and placed on ice.

Data set [5] in a line: Effect of temperature on stability (half-life of UNG activity). It is filed as physicochemical. The protocol:
Enzyme (1 U) were incubated at 50° C., 37° C., 25° C. and 4° C., and 5 μl aliquotes were transferred to the assay mixture after different time intervals, and standard assays were performed as described in material and methods. Half-lifes were determined to 0.5 min (50° C.), 20 min (37° C.), 60 min (25° C.) and 2 h (4° C.) for cUNG and 8 min (50° C.) 30 min (37° C.), 150 min (25° C.) and 2.6 h (4° C.) for rhUNG.
as §1
Temperature: UNG (0.01 U) was preincubated (in a total volume of 75 μl) in 10 mM Tris/HCl, 50 mM NaCl, 1 mM EDTA, 1% glycerol, pH 8.0 (adjusted at each temperature).

The subject of data set [6] is PCR generated uracil-containing DNA substrate. Particulars: literature value (64); cited from earlier work.
The test system of data set [7] is cUNG (Atlantic cod uracil-DNA glycosylase). Briefly: Inhibition of cUNG with uracil-DNA glycosylase inhibitor (Ugi). The format is biochemical, Atlantic cod (Gadus morhua). Particulars: 6.65×10^−4 U cUNG, 1.25×10^3 U to 2.00×10^2 U Ugi. The method, then:
6.65×10^−4 U of cUNG was incubated with 1.25×10^3 U to 2.00×10^2 U of Ugi using standard assay conditions, as described in material and methods. One Unit of Ugi inhibit one Unit of UNG-activity, where the UNG-activty is defined as releasing 60 pmol of uracil per min at 37° C.
Uracil-DNA glycosylase activity was measured in a final volume of 20 μl, containing 70 mM Tris/HCl, 10 mM NaCl, 1 mM EDTA, 100 μg/ml BSA and 230 ng nick-substrate or 71 ng PCR-substrate. The reaction mixture was incubated 10 min at 37° C., and terminated with the addition of 20 μl of ice cold single stranded calf thymus DNA (1 mg/ml) and 500 μl 10% (w/v) TCA. Samples were incubated on ice for 15 min, and centrifuged at 16,000 g for 10 min. Supernatants with acid soluble ^3H-uracil were analyzed using a liquid scintillation counter.
Activity measurements using PCR-substrate were performed with 6.65×10^−4 U of purified cUNG. Various concentrations of uracil (0, 1, 2 and 5 mM) or Ugi-inhibitor (1.25×10^3 U to 2.00×10^2 U) were added to the assay mixtures (on ice). Activity was then measured as described under standard assay conditions.
Target sequence in this assay (as listed by the source): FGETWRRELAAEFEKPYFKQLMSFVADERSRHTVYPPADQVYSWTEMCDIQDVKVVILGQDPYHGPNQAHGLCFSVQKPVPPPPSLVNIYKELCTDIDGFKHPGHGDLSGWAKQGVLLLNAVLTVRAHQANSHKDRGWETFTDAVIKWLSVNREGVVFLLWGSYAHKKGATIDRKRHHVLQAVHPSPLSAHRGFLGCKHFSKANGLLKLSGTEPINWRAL

Read-outs that look alike come from different tables or passages of the source.

The text below walks through data of US7037703B2, “COD URACIL-DNA GLYCOSYLASE, GENE CODING THEREFORE, RECOMBINANT DNA CONTAINING SAID GENE OR OPERATIVE PARTS THEREOF, A METHOD FOR PREPARING SAID PROTEIN AND THE USE OF SAID PROTEIN OR SAID OPERATIVE PARTS THEREOF IN MONITORING OR CONTROLLING PCR” (Biotec Pharmacon ASA, priority 2000, dated 2006).

For the molecule `O=c1cc[nH]c(=O)[nH]1` [uracil], the “inhibition of cUNG activity” value in data set [1] (1 mM uracil in the assay mixture) is on record as “more than 50%”; in data set [1] (5 mM free uracil in the assay mixture), 78%.

B1: E. coli UNG: commercially available UNG (or UDG) from Escherichia coli used in carry-over prevention (protein, UniProt P12295 2-229, looked up)
Uracil-DNA glycosylase: ANELTWHDVLAEEKQQPYFLNTLQTVASERQSGVTIYPPQKDVFNAFRFTELGDVKVVILGQDPYHGPGQAHGLAFSVRPGIAIPPSLLNMYKELENTIPGFTRPNHGYLESWARQGVLLLNTVLTVRAGQAHSHASLGWETFTDKVISLINQHREGVVFLLWGSHAQKKGAIIDKQRHHVLKAPHPSPLSAHRGFFGCNHFVLANQWLEQRGETPIDWMPVLPAESE
For orientation: half-life means how long it takes for the measured level to halve. Regarding B1, the values for the half-life in data set [2] (40° C.) and in data set [2] (45° C.) were 27 min and 8 min, respectively. Besides, in data set [2] (literature (60), (45)), the “inactivation by heat treatment / reactivation” value is “not completely inactivated”.

B2: rhUNG: purified recombinant mesophilic human UNG (UNGΔ84) provided by Dr. Krokan (protein, UniProt P13051 85-304, looked up, fragment)
chain: LAARNVPVGFGESWKKHLSGEFGKPYFIKLMGFVAEERKHYTVYPPPHQVFTWTQMCDIKDVKVVILGQDPYHGPNQAHGLCFSVQRPVPPPPSLENIYKELSTDIEDFVHPGHGDLSGWAKQGVLLLNAVLTVRAHQANSHKERGWEQFTDAVVSWLNQNSNGLVFLLWGSYAQKKGSAIDRKRHHVLQTAHPSPLSVYRGFFGCRHFSKTNELLQKSG
The residual activity is what remains of the control signal, in per cent. Read a low residual activity as a large loss of activity. As to B2, the residual activity in data set [3] (pH 10.0, 10 min at 37° C.) is 66%. In addition, the “pH range in which most stable” value in data set [3] (preincubated 10 min at 37° C.) is given as 7.0-9.5. Further, in data set [4] (FIG. 6, 5-60° C.), the “temperature of highest activity value in temperature profile” value stood at 50 °C. Further, in data set [4] (temperatures higher than 45° C.), the “relative activity compared with cUNG” value is “higher relative activity”. In addition, the half-life in data set [5] (4° C., pH 8.0) came out at 156 min; in data set [5] (25° C., pH 8.0) it was 150 min; in data set [5] (37° C., pH 8.0), 30 min; in data set [5] (50° C., pH 8.0), 8 min; in data set [5] (enzyme in standard dilution buffer on ice), 156 min. Also, in data set [6], the temperature optimum is 45 °C.

B3: Ugi: Bacillus subtilis bacteriophage PBS2 UDG-inhibitor, obtained from New England Biolabs (protein)
chain: MTNLSDIIEKETGKQLVIQESILMLPEEVEEVIGNKPESDILVHTAYDESTDENVMLLTSDAPEYKPWALVIQDSNGENKIKML
With B3, in data set [7], the “effect of Ugi on cUNG activity” value was “clearly inhibited”.
